The data set concerns the molecule itself. Description: cryo-EM structure.

The record followed here is publication doi:10.1101/2025.04.30.651496 (bioRxiv, 2025).

B1: untagged G3BP2 NTF2L domain (amino acids 1-139) (domain or fragment)
chain: MVMEKPSPLLVGREFVRQYYTLLNKAPEYLHRFYGRNSSYVHGGVDASGKPQEAVYGQNDIHHKVLSLNFSECHTKIRHVDAHATLSDGVVVQVMGLLSNSGQPERKFMQTFVLAPEGSVPNKFYVHNDMFRYEDEVFG
With B1, the “stoichiometry N” value came out at 2.
